Measurements taken from paper PMC10397247.
Where two headings read alike, the source gives them in different places.

Tests used:
[1] = target: T1, 4H797-AA; test: two-hybrid library CCmax; conditions: mean of both orientations;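 also: natural log of median RNA to DNA barcode read ratio; higher means stronger binding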
T1 chain: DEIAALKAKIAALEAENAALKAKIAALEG

[2] = target: T2, 4H536-AA; test: two-hybrid library CCmax;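 also: natural log of median RNA to DNA barcode read ratio; higher means stronger binding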
T2 chain: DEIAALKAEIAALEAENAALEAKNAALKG

[3] = target: T3, 4H94-AA; test: two-hybrid library CCmax;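 also: natural log of median RNA to DNA barcode read ratio; higher means stronger binding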
T3 chain: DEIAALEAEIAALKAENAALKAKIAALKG

[4] = target: T4, 4H891-AA; test: two-hybrid library CCmax; conditions: mean of both orientations;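 also: natural log of median RNA to DNA barcode read ratio; higher means stronger binding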
T4 chain: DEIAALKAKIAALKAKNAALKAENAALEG

[5] = target: T5, 4H710-AA; test: two-hybrid library CCmax;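 also: natural log of median RNA to DNA barcode read ratio; higher means stronger binding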
T5 chain: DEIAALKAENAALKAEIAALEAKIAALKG

[6] = target: T6, 4H909-AA; test: two-hybrid library CCmax;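 also: natural log of median RNA to DNA barcode read ratio; higher means stronger binding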
T6 chain: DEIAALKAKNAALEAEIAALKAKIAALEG

[7] = target: T7, 4H570-AA; test: two-hybrid library CCmax; conditions: mean of both orientations
T7 chain: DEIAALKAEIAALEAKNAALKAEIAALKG

[8] = target: T8, 4H745-AA; test: two-hybrid library CCmax; conditions: mean of both orientations
T8 chain: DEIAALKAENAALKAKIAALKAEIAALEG

[9] = target: T9, 4H930-AA; test: two-hybrid library CCmax
T9 chain: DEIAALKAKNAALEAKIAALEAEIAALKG

[10] = target: T10, 4H850-AA; test: two-hybrid library CCmax
T10 chain: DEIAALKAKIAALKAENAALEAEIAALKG

[11] = target: T11, 4H629-AA; test: two-hybrid library CCmax; conditions: mean of both orientations
T11 chain: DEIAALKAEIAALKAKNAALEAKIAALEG

[12] = target: T12, 4H971-AA; test: two-hybrid library CCmax
T12 chain: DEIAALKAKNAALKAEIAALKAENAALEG

[13] = target: T13, 4H678-AA; test: two-hybrid library CCmax; conditions: mean of both orientations
T13 chain: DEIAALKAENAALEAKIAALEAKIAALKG

[14] = target: T14, 4H881-AA; test: two-hybrid library CCmax; conditions: mean of both orientations
T14 chain: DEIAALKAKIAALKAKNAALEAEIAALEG

[15] = target: T15, 4H780-AA; test: two-hybrid library CCmax; conditions: mean of both orientations
T15 chain: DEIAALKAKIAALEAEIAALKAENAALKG

[16] = target: T16, 4H993-AA; test: two-hybrid library CCmax
T16 chain: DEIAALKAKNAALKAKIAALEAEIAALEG

[17] = target: T17, 4H566-AA; test: two-hybrid library CCmax; conditions: mean of both orientations
T17 chain: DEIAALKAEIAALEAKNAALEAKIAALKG

[18] = target: T18, 4H794-AA; test: two-hybrid library CCmax; conditions: mean of both orientations
T18 chain: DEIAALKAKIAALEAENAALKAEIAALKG

[19] = target: T19, 4H48-AA; test: two-hybrid library CCmax; conditions: mean of both orientations
T19 chain: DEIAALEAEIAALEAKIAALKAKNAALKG

[20] = target: T20, 4H605-AA; test: two-hybrid library CCmax
T20 chain: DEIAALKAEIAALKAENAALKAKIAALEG

[21] = target: T21, 4H454-AA; test: two-hybrid library CCmax; conditions: mean of both orientations
T21 chain: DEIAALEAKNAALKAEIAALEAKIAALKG

[22] = target: T22, 4H717-AA; test: two-hybrid library CCmax; conditions: mean of both orientations
T22 chain: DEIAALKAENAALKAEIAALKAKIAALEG

[23] = target: T23, 4H906-AA; test: two-hybrid library CCmax; conditions: mean of both orientations
T23 chain: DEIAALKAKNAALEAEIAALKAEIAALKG

[24] = target: T24, 4H429-AA; test: two-hybrid library CCmax
T24 chain: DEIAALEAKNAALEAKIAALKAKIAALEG

[25] = target: T25, 4H906-bA; test: two-hybrid library CCNG1
T25 chain: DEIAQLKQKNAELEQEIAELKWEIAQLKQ

[26] = target: T26, 4H918-bN; test: two-hybrid library CCNG1
T26 chain: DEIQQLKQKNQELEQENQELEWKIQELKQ

[27] = target: T27, 4H63-AA; test: two-hybrid library CCmax
T27 chain: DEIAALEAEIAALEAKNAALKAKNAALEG

[28] = target: T28, 4H967-bN; test: two-hybrid library CCNG1
T28 chain: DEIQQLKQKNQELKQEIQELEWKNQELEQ

B1: 4H536-AA (peptide)
chain: DEIAALKAEIAALEAENAALEAKNAALKG
- interaction score [1]: -0.504
- interaction score [2]: 0.339
- interaction score ([3]; mean of both orientations): -0.957
- interaction score [4]: 1.78
- interaction score ([5]; mean of both orientations): -1.44
- interaction score ([6]; mean of both orientations): -1.61
- interaction score [7]: 1.1
- interaction score [8]: -1.07
- interaction score ([9]; mean of both orientations): -1.56
- interaction score ([10]; mean of both orientations): 1.35
- interaction score [11]: 0.302

B2: 4H745-AA (peptide)
chain: DEIAALKAENAALKAKIAALKAEIAALEG
- interaction score [1]: -1.44
- interaction score ([3]; mean of both orientations): -1.46
- interaction score [4]: -1.51
- interaction score ([6]; mean of both orientations): -0.361
- interaction score ([9]; mean of both orientations): -0.807
- interaction score ([10]; mean of both orientations): -0.847

B3: 4H971-AA (peptide)
chain: DEIAALKAKNAALKAEIAALKAENAALEG
- interaction score [12]: -0.816

B4: 4H710-AA (peptide)
chain: DEIAALKAENAALKAEIAALEAKIAALKG
- interaction score [1]: -1.31
- interaction score ([3]; mean of both orientations): -0.285
- interaction score [4]: -1.65
- interaction score [5]: 0.809
- interaction score ([6]; mean of both orientations): -0.464
- interaction score [8]: 1.86
- interaction score ([9]; mean of both orientations): -0.472
- interaction score ([10]; mean of both orientations): -1.15

B5: 4H429-AA (peptide)
chain: DEIAALEAKNAALEAKIAALKAKIAALEG
- interaction score [13]: 1.26
- interaction score [14]: -0.143
- interaction score [15]: -1.7
- interaction score [16]: 1.92
- interaction score [17]: 0.0626
- interaction score [18]: -0.809
- interaction score [19]: -0.728
- interaction score [20]: -1.54
- interaction score [21]: 1.83
- interaction score [22]: -0.775
- interaction score [23]: -0.239
- interaction score [24]: 0.468

B6: 4H930-AA (peptide)
chain: DEIAALKAKNAALEAKIAALEAEIAALKG
- interaction score ([3]; mean of both orientations): -1.34
- interaction score [9]: 1.74

B7: 4H605-AA (peptide)
chain: DEIAALKAEIAALKAENAALKAKIAALEG
- interaction score [13]: -0.274
- interaction score [14]: -0.443
- interaction score [15]: -1.53
- interaction score ([16]; mean of both orientations): -1.15
- interaction score [18]: -0.923
- interaction score [20]: 1.29
- interaction score [22]: -1.23
- interaction score [23]: -1.14

B8: 4H909-AA (peptide)
chain: DEIAALKAKNAALEAEIAALKAKIAALEG
- interaction score ([3]; mean of both orientations): -0.983
- interaction score [6]: 2.08
- interaction score ([9]; mean of both orientations): -1.17

B9: 4H906-bA (peptide)
chain: DEIAQLKQKNAELEQEIAELKWEIAQLKQ
- interaction score [25]: 0.95
- interaction score [26]: -0.333

B10: 4H850-AA (peptide)
chain: DEIAALKAKIAALKAENAALEAEIAALKG
- interaction score ([3]; mean of both orientations): 1.79
- interaction score [4]: -0.0612
- interaction score ([6]; mean of both orientations): -1.47
- interaction score ([9]; mean of both orientations): -1.9
- interaction score [10]: 1.89

B11: 4H63-AA (peptide)
chain: DEIAALEAEIAALEAKNAALKAKNAALEG
- interaction score [27]: -1.93

B12: 4H94-AA (peptide)
chain: DEIAALEAEIAALKAENAALKAKIAALKG
- interaction score [3]: 2.24

B13: 4H967-bN (peptide)
chain: DEIQQLKQKNQELKQEIQELEWKNQELEQ
- interaction score [28]: -0.749
